Results: US20080045697A1 (Genentech, published 2008)

Target: T1, complement C3b (UniProt P01024 23-667; P01024 751-1663)
T1 construct: range 1-645;range 729-1641; The residue numbers seem to count on C3 without its signal peptide
Assay: Fig. S13A-C and results not shown

T1 sequence (P01024 23-667 limits assumed, chain 1 of 2): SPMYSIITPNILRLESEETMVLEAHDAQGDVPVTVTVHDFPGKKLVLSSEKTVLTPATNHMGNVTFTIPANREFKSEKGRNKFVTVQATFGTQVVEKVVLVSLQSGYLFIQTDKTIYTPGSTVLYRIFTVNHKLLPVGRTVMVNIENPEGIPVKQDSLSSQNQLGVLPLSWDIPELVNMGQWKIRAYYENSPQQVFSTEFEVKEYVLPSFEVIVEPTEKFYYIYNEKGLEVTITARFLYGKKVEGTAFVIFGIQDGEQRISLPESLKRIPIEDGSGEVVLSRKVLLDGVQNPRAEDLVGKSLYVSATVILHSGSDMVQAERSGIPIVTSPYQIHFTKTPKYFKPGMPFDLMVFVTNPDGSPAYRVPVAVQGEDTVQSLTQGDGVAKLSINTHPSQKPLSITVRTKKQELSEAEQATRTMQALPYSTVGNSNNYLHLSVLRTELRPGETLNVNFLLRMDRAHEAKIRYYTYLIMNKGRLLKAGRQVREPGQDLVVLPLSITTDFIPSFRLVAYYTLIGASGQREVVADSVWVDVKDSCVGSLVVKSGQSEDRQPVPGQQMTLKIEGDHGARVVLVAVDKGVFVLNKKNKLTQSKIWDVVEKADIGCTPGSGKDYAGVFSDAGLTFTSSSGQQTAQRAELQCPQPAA
T1 sequence (P01024 751-1663 limits assumed, chain 2 of 2): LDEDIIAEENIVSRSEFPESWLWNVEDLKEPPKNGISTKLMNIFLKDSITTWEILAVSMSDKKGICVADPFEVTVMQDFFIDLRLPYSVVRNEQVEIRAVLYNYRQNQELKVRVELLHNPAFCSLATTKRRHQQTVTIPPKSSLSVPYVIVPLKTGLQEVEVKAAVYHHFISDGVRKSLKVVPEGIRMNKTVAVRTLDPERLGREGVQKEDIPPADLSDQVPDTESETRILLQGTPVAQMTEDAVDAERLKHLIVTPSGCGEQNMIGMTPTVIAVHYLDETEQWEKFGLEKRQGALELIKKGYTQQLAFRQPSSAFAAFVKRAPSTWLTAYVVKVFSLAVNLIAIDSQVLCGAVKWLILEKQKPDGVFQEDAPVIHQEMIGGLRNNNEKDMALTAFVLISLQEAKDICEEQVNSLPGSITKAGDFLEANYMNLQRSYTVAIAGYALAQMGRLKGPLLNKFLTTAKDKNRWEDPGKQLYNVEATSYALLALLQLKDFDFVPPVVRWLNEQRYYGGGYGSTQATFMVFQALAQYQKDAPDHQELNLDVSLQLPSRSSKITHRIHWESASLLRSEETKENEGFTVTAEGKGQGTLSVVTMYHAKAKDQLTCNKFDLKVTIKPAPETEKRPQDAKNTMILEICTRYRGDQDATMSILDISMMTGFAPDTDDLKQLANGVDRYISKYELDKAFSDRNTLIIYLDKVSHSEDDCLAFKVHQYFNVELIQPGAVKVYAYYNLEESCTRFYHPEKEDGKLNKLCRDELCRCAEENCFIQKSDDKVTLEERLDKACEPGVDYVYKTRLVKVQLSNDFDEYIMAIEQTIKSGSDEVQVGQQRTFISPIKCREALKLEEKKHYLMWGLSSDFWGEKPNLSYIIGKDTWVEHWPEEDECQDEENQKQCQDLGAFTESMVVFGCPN

binding result: binds
B1: complement factor H (other, UniProt P08603 19-1231, looked up)
chain: EDCNELPPRRNTEILTGSWSDQTYPEGTQAIYKCRPGYRSLGNVIMVCRKGEWVALNPLRKCQKRPCGHPGDTPFGTFTLTGGNVFEYGVKAVYTCNEGYQLLGEINYRECDTDGWTNDIPICEVVKCLPVTAPENGKIVSSAMEPDREYHFGQAVRFVCNSGYKIEGDEEMHCSDDGFWSKEKPKCVEISCKSPDVINGSPISQKIIYKENERFQYKCNMGYEYSERGDAVCTESGWRPLPSCEEKSCDNPYIPNGDYSPLRIKHRTGDEITYQCRNGFYPATRGNTAKCTSTGWIPAPRCTLKPCDYPDIKHGGLYHENMRRPYFPVAVGKYYSYYCDEHFETPSGSYWDHIHCTQDGWSPAVPCLRKCYFPYLENGYNQNYGRKFVQGKSIDVACHPGYALPKAQTTVTCMENGWSPTPRCIRVKTCSKSSIDIENGFISESQYTYALKEKAKYQCKLGYVTADGETSGSITCGKDGWSAQPTCIKSCDIPVFMNARTKNDFTWFKLNDTLDYECHDGYESNTGSTTGSIVCGYNGWSDLPICYERECELPKIDVHLVPDRKKDQYKVGEVLKFSCKPGFTIVGPNSVQCYHFGLSPDLPICKEQVQSCGPPPELLNGNVKEKTKEEYGHSEVVEYYCNPRFLMKGPNKIQCVDGEWTTLPVCIVEESTCGDIPELEHGWAQLSSPPYYYGDSVEFNCSESFTMIGHRSITCIHGVWTQLPQCVAIDKLKKCKSSNLIILEEHLKNKKEFDHNSNIRYRCRGKEGWIHTVCINGRWDPEVNCSMAQIQLCPPPPQIPNSHNMTTTLNYRDGEKVSVLCQENYLIQEGEEITCKDGRWQSIPLCVEKIPCSQPPQIEHGTINSSRSSQESYAHGTKLSYTCEGGFRISEENETTCYMGKWSSPPQCEGLPCKSPPEISHGVVAHMSDSYQYGEEVTYKCFEGFGIDGPAIAKCLGEKWSHPPSCIKTDCLSLPSFENAIPMGEKKDVYKAGEQVTYTCATYYKMDGASNVTCINSRWTGRPTCRDTSCVNPPTVQNAYIVSRQMSKYPSGERVRYQCRSPYEMFGDEEVMCLNGNWTEPPQCKDSTGKCGPPPPIDNGDITSFPLSVYAPASSVEYQCQNLYQLEGNKRITCRNGQWSEPPKCLHPCVISREIMENYNIALRWTAKQKLYSRTGESVEFVCKRGYRLSSRSHTLRTTCWDGKLEYPTCAKR
notes: also called fH
